# Patent US20110008345A1 (GlaxoSmithKline, published 2011)
# Positions count from the first letter of the chain named. Where two headings read alike, the source gives them in different places.
# B1: PascoH-TVAAPS-474 GS removed (bispecific antibody, human IgG1, kappa)
# heavy: not shown
# light: DIVLTQSPSSLSASVGDRVTITCKASQSVDYDGDSYMNWYQQKPGKAPKLLIYAASNLESGIPSRFSGSGSGTDFTFTISSLQPEDIATYYCQQSNEDPPTFGQGTKVEIKRTVAAPSVFIFPPSDEQLKSGTASVVCLLNNFYPREAKVQWKVDNALQSGNSQESVTEQDSKDSTYSLSSTLTLSKADYEKHKVYACEVTHQGLSSPVTKSFNRGEC
# B2: BPC1816 (bispecific antibody, human IgG1, kappa)
# heavy: not shown
# light: B1 light
# notes: also called Anti IL-4 heavy Chain-GS-NARV
# B3: BPC1809 (bispecific antibody, human IgG1, kappa)
# heavy: not shown
# light: B1 light
# notes: also called Anti IL-4 heavy Chain-GS-anti RNAse A camelidVHH
# B4: PascoH-474 GS removed (bispecific antibody, human IgG1, kappa)
# heavy: not shown
# light: B1 light
# B5: BPC1618 (bispecific antibody, human IgG4, kappa)
# heavy: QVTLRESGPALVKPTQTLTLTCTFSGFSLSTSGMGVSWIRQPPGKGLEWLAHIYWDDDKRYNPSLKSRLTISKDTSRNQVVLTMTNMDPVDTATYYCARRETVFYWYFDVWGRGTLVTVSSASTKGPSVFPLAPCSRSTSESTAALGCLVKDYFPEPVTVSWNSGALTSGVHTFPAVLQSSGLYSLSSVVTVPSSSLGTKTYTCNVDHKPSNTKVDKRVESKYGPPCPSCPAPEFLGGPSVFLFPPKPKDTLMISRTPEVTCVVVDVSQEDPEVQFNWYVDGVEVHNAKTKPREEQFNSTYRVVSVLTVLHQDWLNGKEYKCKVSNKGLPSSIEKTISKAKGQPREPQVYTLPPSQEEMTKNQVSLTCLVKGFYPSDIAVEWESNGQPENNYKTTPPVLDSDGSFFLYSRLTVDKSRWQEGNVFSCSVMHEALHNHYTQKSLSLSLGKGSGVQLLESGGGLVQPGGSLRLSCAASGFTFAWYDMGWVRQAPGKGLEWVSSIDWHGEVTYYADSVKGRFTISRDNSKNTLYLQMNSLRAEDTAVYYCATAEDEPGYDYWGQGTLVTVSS
# light: B1 light
# B6: BPC1822 (bispecific antibody, human IgG1, kappa)
# heavy: not shown
# light: B1 light
# B7: BPC1823 (bispecific antibody, human IgG1, kappa)
# heavy: not shown
# light: B1 light
# notes: also called Anti IL-4 Heavy Chain-GS-anti TNF-a adnectin
# B8: PascoH-TVAAPS-616 (bispecific antibody, human IgG1, kappa)
# heavy: not shown
# light: B1 light
# B9: BPC1619 (bispecific antibody, human IgG4 S228P, kappa)
# heavy: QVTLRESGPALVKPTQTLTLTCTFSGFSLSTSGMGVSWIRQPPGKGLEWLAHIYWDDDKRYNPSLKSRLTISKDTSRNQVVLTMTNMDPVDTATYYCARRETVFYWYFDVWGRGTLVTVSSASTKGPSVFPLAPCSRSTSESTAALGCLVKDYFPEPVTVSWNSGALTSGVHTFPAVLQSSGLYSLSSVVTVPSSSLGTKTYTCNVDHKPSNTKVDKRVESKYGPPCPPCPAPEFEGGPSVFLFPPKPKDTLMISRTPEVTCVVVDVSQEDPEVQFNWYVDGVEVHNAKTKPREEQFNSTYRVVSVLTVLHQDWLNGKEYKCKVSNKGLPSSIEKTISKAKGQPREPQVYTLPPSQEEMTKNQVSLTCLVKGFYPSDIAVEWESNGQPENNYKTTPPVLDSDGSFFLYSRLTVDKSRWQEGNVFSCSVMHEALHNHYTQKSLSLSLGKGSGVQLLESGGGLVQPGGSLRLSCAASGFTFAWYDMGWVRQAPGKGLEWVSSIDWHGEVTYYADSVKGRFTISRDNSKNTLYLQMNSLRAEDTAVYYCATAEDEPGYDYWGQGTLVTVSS
# light: B1 light
# B10: PascoH-616 (bispecific antibody, human IgG1, kappa)
# heavy: not shown
# light: B1 light
# B11: 586H-TVAAPS-147 (bispecific antibody, human IgG1, kappa)
# heavy: not shown
# light: DIVMTQSPLSLPVTPGEPASISCRSSQNIVHINGNTYLEWYLQKPGQSPRLLIYKISDRFSGVPDRFSGSGSGTDFTLKISRVEADDVGIYYCFQGSHVPWTFGQGTKLEIKRTVAAPSVFIFPPSDEQLKSGTASVVCLLNNFYPREAKVQWKVDNALQSGNSQESVTEQDSKDSTYSLSSTLTLSKADYEKHKVYACEVTHQGLSSPVTKSFNRGEC
# B12: 586H-TVAAPS-154 (bispecific antibody, human IgG1, kappa)
# heavy: not shown
# light: B11 light
# B13: Anti-human IL-18 (humanised) monoclonal antibody (antibody, human IgG1, kappa, V domains shown)
# VH: QVQLVQSGAEVKKPGASVKVSCKVSGEISTGYYFHWVRQAPGKGLEWMGRIDPEDDSTKYAERFKDRVTMTEDTSTDTAYMELSSLRSEDTAVYYCTTWRIYRDSSGRPFYVMDAWGQGTLVTVSS
# VL: DIQMTQSPSSVSASVGDRVTITCLASEDIYTYLTWYQQKPGKAPKLLIYGANKLQDGVPSRFSGSGSGTDYTLTISSLQPEDFATYYCLQGSKFPLTFGQGTKLEIKR
# notes: also called Anti-human IL-18 mAb
# B14: PascoL-ELQLE-474 (bispecific antibody, human IgG1, kappa)
# heavy: not shown
# light: DIVLTQSPSSLSASVGDRVTITCKASQSVDYDGDSYMNWYQQKPGKAPKLLIYAASNLESGIPSRFSGSGSGTDFTFTISSLQPEDIATYYCQQSNEDPPTFGQGTKVEIKRTVAAPSVFIFPPSDEQLKSGTASVVCLLNNFYPREAKVQWKVDNALQSGNSQESVTEQDSKDSTYSLSSTLTLSKADYEKHKVYACEVTHQGLSSPVTKSFNRGECELQLEESCAEAQDGELDGGSGVQLLESGGGLVQPGGSLRLSCAASGFTFAWYDMGWVRQAPGKGLEWVSSIDWHGEVTYYADSVKGRFTISRDNSKNTLYLQMNSLRAEDTAVYYCATAEDEPGYDYWGQGTLVTVSS
# Legend:
# [1] = target: T1, recombinant E. coli-expressed human IL-13 (human, UniProt P35225 35-146); test: SPR exp 1
# T1 construct: made and purified at GSK; also called Interleukin-13; rhIL-13
# [2] = target: T2, recombinant E. coli-expressed human IL-4 (human, UniProt P05112 25-153); test: SPR exp 2
# T2 construct: made and purified at GSK; also called Interleukin-4; rhIL-4
# T2 sequence: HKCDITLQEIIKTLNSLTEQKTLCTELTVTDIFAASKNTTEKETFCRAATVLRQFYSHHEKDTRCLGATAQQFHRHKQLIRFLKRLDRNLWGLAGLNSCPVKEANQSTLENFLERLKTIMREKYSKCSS
# [3] = target: T1, recombinant E. coli-expressed human …; test: SPR exp 2
# [4] = target: T2, recombinant E. coli-expressed human IL-4; test: cell-based or functional assay
# [5] = target: T3, recombinant E. coli-expressed cynomolgus IL-13 (cynomolgus, UniProt Q0PW92 21-132); test: cell-based or functional assay
# [6] = target: T4, recombinant E. coli-expressed cynomolgus IL-4 (cynomolgus, UniProt P79339 25-153); test: cell-based or functional assay
# T4 sequence (looked up): T2 sequence with E26K, V29I, F33L
# [7] = target: T1, recombinant E. coli-expressed human …; test: cell-based or functional assay
# [8] = target: T3, recombinant E. coli-expressed …; test: SPR
# [9] = target: T4, recombinant E. coli-expressed …; test: SPR
# [10] = target: T1, recombinant E. coli-expressed human …; test: ELISA, IL-13 binding to IL13Ralpha2/Fc
# HEL (Hen Egg Lysozyme) = target: T5, HEL (Hen Egg Lysozyme) (hen, UniProt P00698 19-147); test: ELISA
# T5 construct: also called hen egg white lysozyme
# T5 sequence (P00698 19-147): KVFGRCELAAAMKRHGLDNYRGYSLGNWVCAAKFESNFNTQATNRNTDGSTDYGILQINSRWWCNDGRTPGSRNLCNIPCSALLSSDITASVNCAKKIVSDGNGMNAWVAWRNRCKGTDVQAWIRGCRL
# [11] = target: T2, recombinant E. coli-expressed human IL-4; test: ELISA
# RNAse A = target: T6, RNAse A (UniProt P61823 27-150); test: ELISA
# T6 sequence (looked up): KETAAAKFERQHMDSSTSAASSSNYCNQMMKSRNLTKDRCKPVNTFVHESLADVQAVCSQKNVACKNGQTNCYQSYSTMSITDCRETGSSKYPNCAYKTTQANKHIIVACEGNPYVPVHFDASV
# [12] = target: T2, recombinant E. coli-expressed human IL-4; test: cell-based or functional assay; remark: listed apart in the source
# [13] = target: T1, recombinant E. coli-expressed human …; test: cell-based or functional assay; remark: listed apart in the source
# [14] = target: T1, recombinant E. coli-expressed human …; test: SPR, human IL-4 bound first
# [15] = target: T2, recombinant E. coli-expressed human IL-4; test: ELISA, IL-4 binding to IL4Ralpha-Fc
# [16] = target: T1, recombinant E. coli-expressed human …; test: SPR
# [17] = target: T1, recombinant E. coli-expressed human …; test: SPR, no IL-4 bound
# [18] = target: T2, recombinant E. coli-expressed human IL-4; test: ELISA, supernatant
# [19] = target: T1, recombinant E. coli-expressed human …; test: ELISA, supernatant
# [20] = target: recombinant human TNF-alpha (human, UniProt P01375 77-233); test: ELISA, supernatant
# [21] = target: T2, recombinant E. coli-expressed human IL-4; test: SPR exp 2; remark: listed apart in the source
# [22] = target: T1, recombinant E. coli-expressed human …; test: SPR exp 2; remark: listed apart in the source
# [23] = target: T2, recombinant E. coli-expressed human IL-4; test: SPR exp 1
# [24] = target: T1, recombinant E. coli-expressed human …; test: SPR exp 1; remark: listed apart in the source
# [25] = target: T3, recombinant E. coli-expressed …; test: SPR; remark: listed apart in the source
# [26] = target: T3, recombinant E. coli-expressed …; test: cell-based or functional assay; remark: listed apart in the source
# [27] = target: T1, recombinant E. coli-expressed human …; test: cell-based or functional assay; remark: listed apart in the source
# [28] = target: T1, recombinant E. coli-expressed human …; test: SPR; remark: listed apart in the source
# [29] = target: T2, recombinant E. coli-expressed human IL-4; test: SPR, positive dissociation
# [30] = target: T2, recombinant E. coli-expressed human IL-4; test: SPR
# [31] = target: T2, recombinant E. coli-expressed human IL-4; test: SPR, purified
# [32] = target: T1, recombinant E. coli-expressed human …; test: SPR, purified
# [33] = target: recombinant E. coli-expressed human IL-18 (human, UniProt Q14116 37-193); test: SPR
# [34] = target: T1, recombinant E. coli-expressed human …; test: ELISA
binder,measurement,setting,value
B1,Kd,[1],268 pM
same,Kd,[2],11 pM
same,Kd,[3],305 pM
same,Mean ND50 (TF-1),[4],3.02 nM
same,Mean ND50 (TF-1),[5],47.9 nM
same,Mean ND50 (TF-1),[6],1.36 nM
same,Mean ND50 (TF-1),[7],2.11 nM
same,Kd,[8],26700 pM
same,koff,[8],0.0129 s⁻¹
same,kon,[8],483000 M⁻¹ s⁻¹
same,Kd,[9],29 pM
same,koff,[9],5.3e-05 s⁻¹
same,kon,[9],1.83e+06 M⁻¹ s⁻¹
same,IC50,[10],7410 pM
B2,binding result,HEL (Hen Egg Lysozyme),binds
same,binding result,[11],binds
B3,binding result,[11],binds
same,binding result,RNAse A,binds
B4,Mean IC50 (whole blood phospho-STAT6),[12],7950 pM
same,Mean IC50 (whole blood phospho-STAT6),[13],2780 pM
same,Kd,[1],331 pM
same,Kd,[2],5 pM
same,Kd,[3],351 pM
same,Mean ND50 (TF-1),[4],2.85 nM
same,Mean ND50 (TF-1),[5],39.8 nM
same,Mean ND50 (TF-1),[6],1.89 nM
same,Mean ND50 (TF-1),[7],2.27 nM
same,Kd,[8],16600 pM
same,koff,[8],0.011 s⁻¹
same,kon,[8],662000 M⁻¹ s⁻¹
same,Kd,[9],34.2 pM
same,koff,[9],6.38e-05 s⁻¹
same,kon,[9],1.87e+06 M⁻¹ s⁻¹
same,Kd,[14],408 pM
same,koff,[14],0.000231 s⁻¹
same,kon,[14],566000 M⁻¹ s⁻¹
same,IC50,[10],9580 pM
same,IC50,[15],5140 pM
same,Kd,[16],423 pM
same,koff,[16],0.000266 s⁻¹
same,kon,[16],629000 M⁻¹ s⁻¹
same,Kd,[17],425 pM
same,koff,[17],0.000259 s⁻¹
same,kon,[17],609000 M⁻¹ s⁻¹
B5,binding result,[18],binds
same,binding result,[19],binds
B6,binding result,[18],binds
same,binding result,[20],binds
B7,binding result,[18],binds
same,binding result,[20],binds
B8,Kd,[21],5 pM
same,Kd,[22],56 pM
same,Kd,[23],3 pM
same,Kd,[24],49.7 pM
same,Kd,[25],9800 pM
same,koff,[25],0.00451 s⁻¹
same,kon,[25],460000 M⁻¹ s⁻¹
same,IC50,[10],6170 pM
same,Mean ND50 (TF-1),[26],14.5 nM
same,Mean ND50 (TF-1),[27],0.722 nM
B9,binding result,[18],binds
same,binding result,[19],binds
B10,Kd,[22],150 pM
same,Kd,[23],1.72 pM
same,Kd,[24],114 pM
same,Kd,[25],5400 pM
same,koff,[25],0.00184 s⁻¹
same,kon,[25],341000 M⁻¹ s⁻¹
same,IC50,[10],6410 pM
same,Mean ND50 (TF-1),[26],9.23 nM
same,Mean ND50 (TF-1),[27],0.796 nM
B11,Kd,[28],560 pM
same,Kd,[29],11 pM
same,koff,[30],6.69e-07 s⁻¹
same,kon,[30],66200 M⁻¹ s⁻¹
B12,Kd,[31],490 pM
same,Kd,[32],410 pM
same,Kd,[28],560 pM
same,Kd,[29],2 pM
same,koff,[30],1.15e-07 s⁻¹
same,kon,[30],64400 M⁻¹ s⁻¹
B13,Kd,[33],35 pM
B14,binding result,[11],binds
same,binding result,[34],binds
